From US20230405140A1 (MCSAF INSIDE ONCOLOGY, published 2023)

Tests used:
CD56 [1] = target: T1, CD56 (UniProt P13591 20-858, limits assumed); assay: cell-based or functional assay
CD56 [2] = target: T1, CD56; assay: cell-based or functional assay; remark: listed apart in the source
CD56 [3] = target: T1, CD56; assay: cell-based or functional assay; remark: listed apart in the source
HER2 = target: T2, HER2 (UniProt P04626 23-1255, limits assumed); assay: immunocytochemistry with peroxidase secondary antibody, SKBR3 cells (HER2-positive, no CD56); '-' = absence of fixation
T2 construct: whole, on cells; SK-BR-3 (SKBR3) cells, CD56-negative control line

B1: MF-m906-MMAE (antibody, human IgG1, kappa)
heavy: not shown
light: DVVMTQSPLSLPVTPGEPASISCRSSQSLLHSNGYNFLDWYLQKPGQSPQLLIYLGSNRASGVPDRFSGSGSGTDFTLKISRVEADDVGVYYCMQSLQTPWTFGHGTKVEIKRTVAAPSVFIFPPSDEQLKSGTASVVCLLNNFYPREAKVQWKVDNALQSGNSQESVTEQDSKDSTYSLSSTLTLSKADYEKHKVYACEVTHQGLSSPVTKSFNRGEC
modifications: MMAE linker-drug (pyridine-caproic-ValCit-PABc-MMAE, compound 8) grafted on interchain cysteines; mean DAR 3.89
With B1 as the binder, how does the “IC50, XTT cytotoxicity test, H69 small cell lung carcinoma line” value (CD56 [1]) read?
The value was 1 to 2 nM.

B2: MIO-003 (antibody, human IgG1, kappa, N297A)
heavy: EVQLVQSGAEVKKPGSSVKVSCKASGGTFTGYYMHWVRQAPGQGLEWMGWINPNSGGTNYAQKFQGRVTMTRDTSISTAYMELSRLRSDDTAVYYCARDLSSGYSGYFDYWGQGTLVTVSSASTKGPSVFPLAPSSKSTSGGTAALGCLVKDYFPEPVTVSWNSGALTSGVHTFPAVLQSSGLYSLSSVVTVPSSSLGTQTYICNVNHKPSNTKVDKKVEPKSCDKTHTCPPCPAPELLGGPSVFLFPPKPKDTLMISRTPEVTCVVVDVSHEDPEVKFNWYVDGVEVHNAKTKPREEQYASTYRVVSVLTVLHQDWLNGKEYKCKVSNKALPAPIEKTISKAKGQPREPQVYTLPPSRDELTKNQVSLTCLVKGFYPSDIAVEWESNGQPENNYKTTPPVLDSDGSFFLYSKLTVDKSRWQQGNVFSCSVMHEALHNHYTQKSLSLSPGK
light: B1 light
modifications: MMAE linker-drug (pyridine-caproic-ValCit-PABc-MMAE) as in MIO-001; attachment residues not itemised
For B2, which “IC50 (pM), XTT assay, PeTa n = 3” value (CD56 [2]) is on record?
Its value is 14900 pM.

And the “IC50 (pM), XTT assay, WaGa n = 3” value (CD56 [2])?
Its value is 10300 pM.

And the “IC50 (pM), XTT assay, H69 n = 3” value (CD56 [3])?
Its value is 1950 pM.

And the “IC50 (pM), XTT assay, H209 n = 3” value (CD56 [3])?
The value was 22100 pM.

B3: m906 (antibody, human IgG1, kappa)
heavy: not shown
light: B1 light
notes: also called mAb-001; anti-CD56 antibody m906
Does B3 bind (HER2)?
Result: no binding (tested: 650 ng/mL)
